Patent US20220220215A1 (CRESCENDO BIOLOGICS, published 2022)

B1: TPP-973: CD137A -6GS-PDA2-6GS-HSA2-His (bispecific antibody)
chain: EVQLVESGGGLVQPGGSLRLSCAASGFTLSNYWMNWVRQAPGKGLEWVANINQDGSERYYVDSVKGRFTISRDNAKNSLYLQMNSLRAEDTAVYYCARGGEGYGVDHYGLDVSGQGTTVTVSSGGGGSGGGGSGGGGSGGGGSGGGGSGGGGSEVQLVESGGGVVRPGGSLRLSCAASGFTFDDYAMSWVRQAPGKGLEWVSGITWNAGSTGYADSVKGRFTISRDNAKNSLYLQMNSLRAEDTALYYCVRDKYSYAWSYDDFDIWGQGTMVTVSSGGGGSGGGGSGGGGSGGGGSGGGGSGGGGSEVQLVESGGGLVKPGGSLRLSCAASGFTFSNYNMNWVRQAPGKGLEWVSSISSAGTHIYYADSVKGRFTISRDNAKNSLYLQMNSLRAEDTAVYYCARDPHSTGWYKDFDYWGQGTLVTVSSAAAHHHHHH
notes: Single-chain VH fusion (CD137 VH, PD-1 VH, HSA VH), His tag
B2: TPP-969: PDA-6GS-HSA2-6GS-172E1-13-His (bispecific antibody)
chain: EVQLVESGGGLVQPGRSLRLSCAASGFTFDDYALHWVRQAPGKDLEWVSGISWNGGSYGYADSVKGRFTISRDNAKNSLYLQMNSLRAEDTALYYCVREKGPGLTGSTADYYGLDAWGQGTMVTVSSGGGGSGGGGSGGGGSGGGGSGGGGSGGGGSEVQLVESGGGLVKPGGSLRLSCAASGFTFSNYNMNWVRQAPGKGLEWVSSISSAGTHIYYADSVKGRFTISRDNAKNSLYLQMNSLRAEDTAVYYCARDPHSTGWYKDFDYWGQGTLVTVSSGGGGSGGGGSGGGGSGGGGSGGGGSGGGGSEVQLVESGGGVVQPGGSLRLSCAASGFTFSNYGMHWVRQAPGKGLEWVAVISNDGNTKTYADSVKGRFTISRDNSKNTLYLQMNSLRAEDTAVYYCAQDETTTVTASYYFDYWGQGTLVTVSSAAAHHHHHH
notes: Single-chain VH fusion (PD-1 VH, HSA VH, CD137 VH), His tag
B3: TPP-1010: PD138G7(G109D)-6GS-HSA2-6GS- CD137D -His (bispecific antibody)
chain: EVQLVESGGGVVRPGGSLRLSCAASGFTFDDYAMSWVRQAPGKGLEWVSGITWNGGSTGYADSVKDRFTISRDNAKNSLYLQMNSLRAEDTALYYCVRDKYSYAWSYDDFDIWGQGTMVTVSSGGGGSGGGGSGGGGSGGGGSGGGGSGGGGSEVQLVESGGGLVKPGGSLRLSCAASGFTFSNYNMNWVRQAPGKGLEWVSSISSAGTHIYYADSVKGRFTISRDNAKNSLYLQMNSLRAEDTAVYYCARDPHSTGWYKDFDYWGQGTLVTVSSGGGGSGGGGSGGGGSGGGGSGGGGSGGGGSEVQLVESGGGVVQPGGSLRLSCAASGFTFSNYGMHWVRQAPGKGLEWVAVISNDGNTKTYADSVKGRFTISRDNSKNTLYLQMNSLRAEDTAVYYCAQDETTTVTASYYFDYWGQGTLVTVSSAAAHHHHHH
notes: as for B2
B4: TPP-972: CD137A-6GS-PDA-6GS-HSA2-His (bispecific antibody)
chain: EVQLVESGGGLVQPGGSLRLSCAASGFTLSNYWMNWVRQAPGKGLEWVANINQDGSERYYVDSVKGRFTISRDNAKNSLYLQMNSLRAEDTAVYYCARGGEGYGVDHYGLDVSGQGTTVTVSSGGGGSGGGGSGGGGSGGGGSGGGGSGGGGSEVQLVESGGGLVQPGRSLRLSCAASGFTFDDYALHWVRQAPGKDLEWVSGISWNGGSYGYADSVKGRFTISRDNAKNSLYLQMNSLRAEDTALYYCVREKGPGLTGSTADYYGLDAWGQGTMVTVSSGGGGSGGGGSGGGGSGGGGSGGGGSGGGGSEVQLVESGGGLVKPGGSLRLSCAASGFTFSNYNMNWVRQAPGKGLEWVSSISSAGTHIYYADSVKGRFTISRDNAKNSLYLQMNSLRAEDTAVYYCARDPHSTGWYKDFDYWGQGTLVTVSSAAAHHHHHH
notes: as for B1
B5: TPP-1028: CD137A -6GS-HSA3-6GS-PD138G7(G109D)-His (bispecific antibody)
chain: EVQLVESGGGLVQPGGSLRLSCAASGFTLSNYWMNWVRQAPGKGLEWVANINQDGSERYYVDSVKGRFTISRDNAKNSLYLQMNSLRAEDTAVYYCARGGEGYGVDHYGLDVSGQGTTVTVSSGGGGSGGGGSGGGGSGGGGSGGGGSGGGGSEVQLLESGGGLVKPGGSLRLSCAASGFTVSSYTMNWVRQAPGKGLEWVSSISSSGRYIYYADSVKGRFTISRDNAKNSLYLQMNSLRAEDTAVYYCARDPRMVGNPHEFDIWGQGTMVTVSSGGGGSGGGGSGGGGSGGGGSGGGGSGGGGSEVQLVESGGGVVRPGGSLRLSCAASGFTFDDYAMSWVRQAPGKGLEWVSGITWNGGSTGYADSVKDRFTISRDNAKNSLYLQMNSLRAEDTALYYCVRDKYSYAWSYDDFDIWGQGTMVTVSSAAAHHHHHH
notes: Single-chain VH fusion (CD137 VH, HSA VH, PD-1 VH), His tag
B6: TPP-1027: CD137A -6GS-HSA2-6GS-PD138G7(G109D)-His (bispecific antibody)
chain: EVQLVESGGGLVQPGGSLRLSCAASGFTLSNYWMNWVRQAPGKGLEWVANINQDGSERYYVDSVKGRFTISRDNAKNSLYLQMNSLRAEDTAVYYCARGGEGYGVDHYGLDVSGQGTTVTVSSGGGGSGGGGSGGGGSGGGGSGGGGSGGGGSEVQLVESGGGLVKPGGSLRLSCAASGFTFSNYNMNWVRQAPGKGLEWVSSISSAGTHIYYADSVKGRFTISRDNAKNSLYLQMNSLRAEDTAVYYCARDPHSTGWYKDFDYWGQGTLVTVSSGGGGSGGGGSGGGGSGGGGSGGGGSGGGGSEVQLVESGGGVVRPGGSLRLSCAASGFTFDDYAMSWVRQAPGKGLEWVSGITWNGGSTGYADSVKDRFTISRDNAKNSLYLQMNSLRAEDTALYYCVRDKYSYAWSYDDFDIWGQGTMVTVSSAAAHHHHHH
notes: as for B5
B7: TPP-1290 PD138G7(G109D)-6GS-CD137A-6GS-HSA2 (bispecific antibody)
chain: EVQLVESGGGVVRPGGSLRLSCAASGFTFDDYAMSWVRQAPGKGLEWVSGITWNGGSTGYADSVKDRFTISRDNAKNSLYLQMNSLRAEDTALYYCVRDKYSYAWSYDDFDIWGQGTMVTVSSGGGGSGGGGSGGGGSGGGGSGGGGSGGGGSEVQLVESGGGLVQPGGSLRLSCAASGFTLSNYWMNWVRQAPGKGLEWVANINQDGSERYYVDSVKGRFTISRDNAKNSLYLQMNSLRAEDTAVYYCARGGEGYGVDHYGLDVSGQGTTVTVSSGGGGSGGGGSGGGGSGGGGSGGGGSGGGGSEVQLVESGGGLVKPGGSLRLSCAASGFTFSNYNMNWVRQAPGKGLEWVSSISSAGTHIYYADSVKGRFTISRDNAKNSLYLQMNSLRAEDTAVYYCARDPHSTGWYKDFDYWGQGTLVTVSS
B8: TPP-1246 CD137A-6GS-HSA2-6GS-PD138G7(G109D) (bispecific antibody)
chain: EVQLVESGGGLVQPGGSLRLSCAASGFTLSNYWMNWVRQAPGKGLEWVANINQDGSERYYVDSVKGRFTISRDNAKNSLYLQMNSLRAEDTAVYYCARGGEGYGVDHYGLDVSGQGTTVTVSSGGGGSGGGGSGGGGSGGGGSGGGGSGGGGSEVQLVESGGGLVKPGGSLRLSCAASGFTFSNYNMNWVRQAPGKGLEWVSSISSAGTHIYYADSVKGRFTISRDNAKNSLYLQMNSLRAEDTAVYYCARDPHSTGWYKDFDYWGQGTLVTVSSGGGGSGGGGSGGGGSGGGGSGGGGSGGGGSEVQLVESGGGVVRPGGSLRLSCAASGFTFDDYAMSWVRQAPGKGLEWVSGITWNGGSTGYADSVKDRFTISRDNAKNSLYLQMNSLRAEDTALYYCVRDKYSYAWSYDDFDIWGQGTMVTVSS
B9: TPP-1245 CD137A-6GS-PDA2-6GS-HSA2 (bispecific antibody)
chain: EVQLVESGGGLVQPGGSLRLSCAASGFTLSNYWMNWVRQAPGKGLEWVANINQDGSERYYVDSVKGRFTISRDNAKNSLYLQMNSLRAEDTAVYYCARGGEGYGVDHYGLDVSGQGTTVTVSSGGGGSGGGGSGGGGSGGGGSGGGGSGGGGSEVQLVESGGGVVRPGGSLRLSCAASGFTFDDYAMSWVRQAPGKGLEWVSGITWNAGSTGYADSVKGRFTISRDNAKNSLYLQMNSLRAEDTALYYCVRDKYSYAWSYDDFDIWGQGTMVTVSSGGGGSGGGGSGGGGSGGGGSGGGGSGGGGSEVQLVESGGGLVKPGGSLRLSCAASGFTFSNYNMNWVRQAPGKGLEWVSSISSAGTHIYYADSVKGRFTISRDNAKNSLYLQMNSLRAEDTAVYYCARDPHSTGWYKDFDYWGQGTLVTVSS
B10: TPP-1247 CD137A-6GS-HSA3-6GS-PD138G7(G109D) (bispecific antibody)
chain: EVQLVESGGGLVQPGGSLRLSCAASGFTLSNYWMNWVRQAPGKGLEWVANINQDGSERYYVDSVKGRFTISRDNAKNSLYLQMNSLRAEDTAVYYCARGGEGYGVDHYGLDVSGQGTTVTVSSGGGGSGGGGSGGGGSGGGGSGGGGSGGGGSEVQLLESGGGLVKPGGSLRLSCAASGFTVSSYTMNWVRQAPGKGLEWVSSISSSGRYIYYADSVKGRFTISRDNAKNSLYLQMNSLRAEDTAVYYCARDPRMVGNPHEFDIWGQGTMVTVSSGGGGSGGGGSGGGGSGGGGSGGGGSGGGGSEVQLVESGGGVVRPGGSLRLSCAASGFTFDDYAMSWVRQAPGKGLEWVSGITWNGGSTGYADSVKDRFTISRDNAKNSLYLQMNSLRAEDTALYYCVRDKYSYAWSYDDFDIWGQGTMVTVSS
B11: TPP-1293 (PDBlocker1.92-6GS- CD137A -6GS-HSA2) (bispecific antibody)
chain: EVQLVESGGGLVKPGGSLRLSCAASGFTFSDESMTWMRQAPGKGLEWVSYISSGGGVKFYADSVKGRFTISRDNAKNSLYLQMNSLRAEDTAVYYCAREAPLRLGESPHDAFDISGQGTMVTVSSGGGGSGGGGSGGGGSGGGGSGGGGSGGGGSEVQLVESGGGLVQPGGSLRLSCAASGFTLSNYWMNWVRQAPGKGLEWVANINQDGSERYYVDSVKGRFTISRDNAKNSLYLQMNSLRAEDTAVYYCARGGEGYGVDHYGLDVSGQGTTVTVSSGGGGSGGGGSGGGGSGGGGSGGGGSGGGGSEVQLVESGGGLVKPGGSLRLSCAASGFTFSNYNMNWVRQAPGKGLEWVSSISSAGTHIYYADSVKGRFTISRDNAKNSLYLQMNSLRAEDTAVYYCARDPHSTGWYKDFDYWGQGTLVTVSS

Target: T1, human PD-1 expressed on CHO cells (human, UniProt Q15116 21-288)
T1 construct: also called CHO huPD1; CHO human PD1 cells
Test: FMAT/Mirrorball on CHO huPD1 cells
Experimental: Binding of His-tagged molecules to CHO human CD137, CHO parent and CHO human PD1 cells was assessed using Fluorescence Microvolume Assay Technology (FMAT). All reagents were prepared in FMAT assay buffer (pH 7.4) containing PBS, 0.1% Bovine Serum Albumin, 0.05% Sodium Azide. […] Fluorescence emission was then measured on the TTP Mirrorball plate reader in the FL2 (502 nm-537 nm) and FL5 (677-800 nm) channels following excitation at 488 nm and 640 nm. Data was gated on FL5 perimeter and peak intensity and the FL2 median mean fluorescence intensity of the gated data used for determination of VH binding. Monovalent CD137 specific Humabody® VH, and trispecific molecules with a CD137 binding arm bound to CHO CD137 expressing cells. Trispecific Humabody® VH, with a PD1 binding arm bound to PD1 expressing cells.

Binder	EC50
B1	0.481 nM
B2	0.142 nM
B3	0.162 nM
B4	0.15 nM
B5	0.583 nM
B6	0.173 nM

Target: T2, human CD137 expressed on CHO cells (human, UniProt Q07011 18-255)
T2 construct: also called CHO huCD137; CHO human CD137 cells
Test: flow cytometry on CHO huCD137 cells

Binder	EC50
B1	0.595 nM
B2	11.6 nM
B7	4.45 nM
B3	9.39 nM
B8	2.48 nM
B5	1.99 nM
B6	1.47 nM
B9	4.4 nM
B10	3.39 nM

Target: T2, human CD137 expressed on CHO cells
Test: FMAT/Mirrorball on CHO huCD137 cells
Method in brief: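 His-tagged VH molecules bound to CHO cells expressing human PD-1 or human CD137, with CHO parent cells as control, in PBS pH 7.4, 0.1% BSA, 0.05% sodium azide. Read by FMAT on Mirrorball (ex 488/640 nm); binding taken as FL2 median fluorescence intensity of FL5-gated events.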

Binder	EC50
B1	0.0781 nM
B2	0.171 nM
B3	0.101 nM
B4	0.0533 nM
B5	0.151 nM
B6	0.0672 nM

Target: T1, human PD-1 expressed on CHO cells
Test: flow cytometry on CHO huPD1 cells

Binder	EC50
B1	108 nM
B11	44.8 nM
B7	22.7 nM
B3	0.531 nM
B8	20.5 nM
B4	33 nM
B5	22.7 nM
B6	5.01 nM
B9	183 nM
B10	25.4 nM
